# Assay results reported in the supplement of paper PMC10201428.
# ± gives the standard deviation of the averaged measurements.
# Tested on: VchCAST RNA-guided transposition machinery (E. coli BL21(DE3) host, lacZ target)
# Experiment: relative integration efficiency (T-RL orientation) vs wild-type transposon end (log2 (normalized fold change)); transposon end mutated: right end (5 bp flank + 75 bp right end); higher = more efficient transposition
# Summary of the method: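 Barcoded pools of 1549 left-end or 1849 right-end transposon variants were cloned into a pUC57 mini-transposon donor. Each pool was co-transformed with a T7-driven effector plasmid (CRISPR array, tniQ-cas8-cas7-cas6, tnsA-tnsB-tnsC) into E. coli BL21(DE3) and plated with 0.1 mM IPTG at 37°C for 18 h. Input plasmids and genomic integration junctions were PCR-amplified and Illumina-sequenced, with two biological output replicates and four wild-type barcodes as reference. Relative integration efficiency is output/input barcode abundance fold change, normalised to wild-type barcodes and log-transformed.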
row,Sequence,relative integration efficiency (log2)
1,ACATTTGTTGATACAACCATAAAATGATAATTACACCCATAAATTGATAATTATCACACCCATAAATTGATATTGCCTCTGATCAATATGTAACCAAAAGTAAAATAGTCAGACCAAGCACCGACAC,-0.295 ± 0.29
2,ACATTTGTGTATACAACCATAAAATGATAATTACACCCATAAATTGATAATTATCACACCCATAAATTGATATTGCCTCTGATCATAGTCAGACCAACATTGCTACGACCCGTATTCGCACCGACAC,0.00813 ± 0.2
3,ACATTTGTTGATACAACCATAAAGTGATATTTACAACCATAAGTTGATATTTTTCACAACCATAAGTTGATATTTTCTCTGATCATAGTCAGACCAACATTGCTACGACCCGTATTCGCACCGACAC,0.36 ± 0.12
4,ACATTTGTTGATACAACCATAAAATGATAATTAATAATTATTTACACCCATAAATTGATAATTATCACACCCATAAATTGATATTGCCTCTGATCATAGTCAGACCAACATTGCTACGACCCGTATT,-2.85 ± 0.13
5,ACATTTGTTGATACAACCATATATTGATATCTCCAACCATAAAATGATAATTATCACACCCATAAATTGATATTGCCTCTGATCATAGTCAGACCAACATTGCTACGACCCGTATTCGCACCGACAC,-0.212 ± 0.018
6,ACATTTGTTGATACAACCATAAAATGATAATTACCACCATAAATTGATAATTATCACACCCATAAATTGATATTGCCTCTGATCATAGTCAGACCAACATTGCTACGACCCGTATTCGCACCGACAC,0.0622 ± 0.17
7,ACATTTGTTCATCCAACCATAAAATGATAATTACACCCATAAATTGATCATTATCACACCCAATTTAACTATAACGCTCTGATCATAGTCAGACCAACATTGCTACGACCCGTATTCGCACCGACAC,-2.44 ± 0.32
8,ACATTTGTTGATACAACCATAAAATCATAATTACACCCATCAATTGATAATTATCCCACCCCATTTAACTATAACGCTCTGATCATAGTCAGACCAACATTGCTACGACCCGTATTCGCACCGACAC,-4.292 ± 0.026
9,ACATTTGTGGATACAACCATAAAATGATAATTACCACCCATAAATTGATAATTATCACACCCATTTAACTATAACGCTCTGATCATAGTCAGACCAACATTGCTACGACCCGTATTCGCACCGACAC,-1.11 ± 0.24
10,ACATTTGTTGATACAACCATAAAATGATAATTACAACCATAAAGTGATATTTATCACAACCATAAAATGATAATTACTCTGATCATAGTCAGACCAACATTGCTACGACCCGTATTCGCACCGACAC,-0.258 ± 0.14
11,ACATTTGTTGATACAACCATAAAATGATAATTACACCCATAAATTGATAATTATCAACAAACGCCCGGTCGCGGTACTCTGATCATAGTCAGACCAACATTGCTACGACCCGTATTCGCACCGACAC,-0.287 ± 0.0067
12,ACATTTGTTGATACAACCATAAAATGATAATTACACCCATAAATTGATAATTATCACACCCATAAATTGATATTGCTTATGATCATAGTCAGACCAACATTGCTACGACCCGTATTCGCACCGACAC,0.0482 ± 0.094
13,ACATTTGTTGATACAACCATAAAATGATAATTACACCCATTAATTGATAATGATGACACCGAATTTAACTATAACGCTCTGATCATAGTCAGACCAACATTGCTACGACCCGTATTCGCACCGACAC,-1.4 ± 0.35
14,ACATTTGTTGATACAACCATAAAATCATAATTACACCCATCAATTGATAATTATCCCACCCAATTTAACTATAACGCTCTGATCATAGTCAGACCAACATTGCTACGACCCGTATTCGCACCGACAC,-3.92 ± 0.52
15,ACATTTGTTGTATGAACCATAAAATGATAATTACACCCATAAATTGATAATTATCACACCCATAAATTGATATTGCCTCTGATCATAGTCAGACCAACATTGCTACGACCCGTATTCGCACCGACAC,-0.782 ± 0.022
16,ACATTTGTTCTATCAACCATAAAATGATAATTACACCCATAAATTGATAATTATCACACCCATAAATTGATATTGCCTCTGATCATAGTCAGACCAACATTGCTACGACCCGTATTCGCACCGACAC,-1.53 ± 0.17

row,Sequence,relative integration efficiency (log2)
1,ACATTTGTCGATACAACCATAAAATGATAATTACACCCATAAATTCATAATTATCACACCCAATTTAACTATAACGCTCTGATCATAGTCAGACCAACATTGCTACGACCCGTATTCGCACCGACAC,-1.92 ± 0.14
2,ACATTTGTTGATACAACCATATATTGATATCTCCAACCATAAGTTGATATTTTTCACAACCATAAAGTGATATTTACTCTGATCATAGTCAGACCAACATTGCTACGACCCGTATTCGCACCGACAC,-0.225 ± 0.017
3,ACATTTGTGGATACAACCCTAAAATGATAATTACACCCATAAATTCATAATTATCACCCCCAATTTAACTATAACGCTCTGATCATAGTCAGACCAACATTGCTACGACCCGTATTCGCACCGACAC,-4.88 ± 0.16
4,ACATTTGTTGATACAACCATAAAATGATAATTACACCCAGCAATTGATAATTATCACACCCATAAATTGATATTGCCTCTGATCATAGTCAGACCAACATTGCTACGACCCGTATTCGCACCGACAC,-2.18 ± 0.085
5,ACATTTGTTGATACACCCATAAATTGATATTGCCAACCATAAGTTGATATTTTTCACACCCATAAATTGATATTGCCTCTGATCATAGTCAGACCAACATTGCTACGACCCGTATTCGCACCGACAC,-0.773 ± 0.11
6,ACATTTGTTGATACCACCATAAAATGGTAATTCCACCCATAAATTGATAATTATCACACCCAATTTAACTATAACGCTCTGATCATAGTCAGACCAACATTGCTACGACCCGTATTCGCACCGACAC,-1.38 ± 0.23
7,ACATTTGTTGATACAACCATAAAATGATAATTACACCCATAAATTGATAATTATCAGTCCCATAAATTGATATTGCCTCTGATCATAGTCAGACCAACATTGCTACGACCCGTATTCGCACCGACAC,-0.441 ± 0.031
8,ACATTTGTTGATACAACCATAAAATGATCCGGCACAAACGCCCGGTCGCCGGCGACACAAACGCCCGGTCGCGGTAAGAGGATCATAGTCAGACCAACATTGCTACGACCCGTATTCGCACCGACAC,-2.68 ± 0.12
9,ACATTTGTTGATACAACCATAAAATGATAATTACCAAAATAAATTGATAATTATCACACCCATAAATTGATATTGCCTCTGATCATAGTCAGACCAACATTGCTACGACCCGTATTCGCACCGACAC,-0.773 ± 0.1
10,ACATTTGTTGATACAACCATAAAAGGATAATTACACCCATAAATTGATAATTATCCCACCCCATTTAACTATAACGCTCTGATCATAGTCAGACCAACATTGCTACGACCCGTATTCGCACCGACAC,-0.775 ± 0.14
11,ACATTTGTTGATACAACCATAAAATGATAATTACAACCATAAGTTGATATTTTTCACAACCATAAAATGATAATTACTCTGATCATAGTCAGACCAACATTGCTACGACCCGTATTCGCACCGACAC,-0.308 ± 0.21
12,ACATTTGTTCATACAACCATAAAATGATAATTACACCCATAAATTGATCATTATCACCCCCAATTTAACTATAACGCTCTGATCATAGTCAGACCAACATTGCTACGACCCGTATTCGCACCGACAC,-1.59 ± 0.39
13,ACATTTGTTGATACAACCATAAAATGATAATTACACCCATAAATTGATAATTATCACACCCATAAATTGATATTGCCTCTGATAGTACTGCGCGCCTGAATTCATCGTTAAATCGTCGCACCGACAC,0.0579 ± 0.2
14,ACATTTGTTGATACAACCATAAAGTGATATTTACAACCATATATTGATATCTCTCACAACCATAAAATGATAATTACTCTGATCATAGTCAGACCAACATTGCTACGACCCGTATTCGCACCGACAC,-0.337 ± 0.17
15,ACATTAGTCGATACAACCATAAAATGATAATTACACCCATAAATTCATCATTATCACACCCAATTTAACTATAACGCTCTGATCATAGTCAGACCAACATTGCTACGACCCGTATTCGCACCGACAC,-7.32 ± 0.43
16,ACATTTGTGGATCCAACCATAAAATGATAATTACACCCATAAATTCATCATTATCACACCCAATTTAACTATAACGCTCTGATCATAGTCAGACCAACATTGCTACGACCCGTATTCGCACCGACAC,-2.28 ± 0.22
